What is called Km is the substrate concentration at which the rate is half of its maximum. The term kcat denotes the maximal rate divided by the concentration of active sites.

Substrate in the data set: Nc1ncnc2c1ncn2[C@@H]1O[C@H](COP(=O)(O)OP(=O)(O)OP(=O)(O)O)[C@@H](O)[C@H]1O
In words: purified protein.

B1: BaMV helicase-like domain (of BaMV replicase) (Bamboo mosaic virus) (protein)
chain: YSPDIERAAAFARDVMSNKTGAILPKQSHEWKTTLKRKCKLAPRQTLISVIHGAGGSGKSRALQEYMRNNKEDPIVTILPTNELRADWKAKLPAHDPDMFMTFENALLIPKGNVVIMDDYTKLPRGYIEAYVQNSPMLDLLILTGDPRQSEHFESAEGNTINDLSPSPVVFSAYARYYINATHRNNQDLANALGVYSEKQGKTRISVSNHIEDGRHTLVPSQIKQRNYVSMGRKTSTYAGCQGITASRVQVIIDNDTAKCSHQVLYTAFSRAADEIHFCNTMTDEKQFWAKVKCTPYLQAILNLTKEHSLPDP
On to B1, for which the Km worked out at 148 ± 5 µM and the kcat was found to be 82 s⁻¹.
